From the supplement of paper PMC10567573

B1: CASP6 (parent)
chain: TCADRDNLTRRFSDLGFEVKCFND
B2: FCHO1 (parent)
chain: FSDPSQSDPETKDFWLNMAALTEA
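Note: lentivirally expressed fusions sorted by FACS into six bins by GFP to DsRed ratio, PSI derived from sequencing read proportions per bin multiplied by bin number.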

Variants of: B1
Experiment: protein stability index of a GFP-peptide fusion (GPS, HEK-293T) (PSI 1-6); higher = more stable
Settings: c terminus: a fixed tail appended
TCADRDNLTRRFSDLGFEVKCNND gave a protein stability index of 4.58. TCADRDNLTRRFSDLGFEVKCTND gave a protein stability index of 4.73. Work on TCADRDNLTRRFSDLGFEVKCLND yielded a protein stability index of 3.89. Variant TCADRDNLTRRFSDLGFEVKCVND has a protein stability index of 3.93. Variant TCADRDNLTRRFSDLGFEVKCHND has a protein stability index of 3.86. For TCADRDNLTRRFSDLGFEVKCKND, the protein stability index was 4.72. With TCADRDNLTRRFSDLGFEVKCCND the protein stability index was 3.83. Work on TCADRDNLTRRFSDLGFEVKCDND yielded a protein stability index of 4.95. In the case of TCADRDNLTRRFSDLGFEVKCWND, the protein stability index is reported as 3.28. TCADRDNLTRRFSDLGFEVKCMND gave a protein stability index of 3.96. Variant TCADRDNLTRRFSDLGFEVKCSND has a protein stability index of 3.84. In the case of TCADRDNLTRRFSDLGFEVKCIND, the protein stability index is reported as 3.9. Variant TCADRDNLTRRFSDLGFEVKCQND has a protein stability index of 4.15. With TCADRDNLTRRFSDLGFEVKCAND the protein stability index was 4.54. Work on TCADRDNLTRRFSDLGFEVKCGND yielded a protein stability index of 3.37. For TCADRDNLTRRFSDLGFEVKCEND, the protein stability index was 4.46. Variant TCADRDNLTRRFSDLGFEVKCPND has a protein stability index of 4.32. For TCADRDNLTRRFSDLGFEVKCRND, the protein stability index was 3.73. Variant TCADRDNLTRRFSDLGFEVKCYND has a protein stability index of 3.98. With TCADRDNLTRRFSDLGFEVQCFND the protein stability index was 3.37. In the case of TCADRDNLTRRFSDLGFEVTCFND, the protein stability index is reported as 3.15. TCADRDNLTRRFSDLGFEVHCFND showed a protein stability index of 2.89. TCADRDNLTRRFSDLGFEVYCFND gave a protein stability index of 2.2. With TCADRDNLTRRFSDLGFEVICFND the protein stability index was 2.42. For TCADRDNLTRRFSDLGFEVPCFND, the protein stability index was 3.58. In the case of TCADRDNLTRRFSDLGFEVNCFND, the protein stability index is reported as 3.75. With TCADRDNLTRRFSDLGFEVRCFND the protein stability index was 3.32. For TCADRDNLTRRFSDLGFEVVCFND, the protein stability index was 2.83. TCADRDNLTRRFSDLGFEVFCFND gave a protein stability index of 2.87. In the case of TCADRDNLTRRFSDLGFEVMCFND, the protein stability index is reported as 2.57. TCADRDNLTRRFSDLGFEVWCFND showed a protein stability index of 2.56. TCADRDNLTRRFSDLGFEVSCFND gave a protein stability index of 3.17. TCADRDNLTRRFSDLGFEVLCFND gave a protein stability index of 3. Variant TCADRDNLTRRFSDLGFEVDCFND has a protein stability index of 4.14. TCADRDNLTRRFSDLGFEVECFND gave a protein stability index of 3.6. Work on TCADRDNLTRRFSDLGFEVGCFND yielded a protein stability index of 3.54. With TCADRDNLTRRFSDLGFEVKCFHD the protein stability index was 2.71. In the case of TCADRDNLTRRFSDLGFEVKCFFD, the protein stability index is reported as 2.51. Work on TCADRDNLTRRFSDLGFEVKCFDD yielded a protein stability index of 3.41. For TCADRDNLTRRFSDLGFEVKCFRD, the protein stability index was 3.89. Work on TCADRDNLTRRFSDLGFEVKCFKD yielded a protein stability index of 3.41. TCADRDNLTRRFSDLGFEVKCFYD gave a protein stability index of 2.34. Work on TCADRDNLTRRFSDLGFEVKCFMD yielded a protein stability index of 2.98. With TCADRDNLTRRFSDLGFEVKCFLD the protein stability index was 3.8. Work on TCADRDNLTRRFSDLGFEVKCFTD yielded a protein stability index of 3.28. In the case of TCADRDNLTRRFSDLGFEVKCFGD, the protein stability index is reported as 3.23. Work on TCADRDNLTRRFSDLGFEVKCFVD yielded a protein stability index of 2.81. TCADRDNLTRRFSDLGFEVKCFQD showed a protein stability index of 3.12. With TCADRDNLTRRFSDLGFEVKCFPD the protein stability index was 3.61. With TCADRDNLTRRFSDLGFEVKCFWD the protein stability index was 1.41. For TCADRDNLTRRFSDLGFEVKCFSD, the protein stability index was 3.66. For TCADRDNLTRRFSDLGFEVKCFID, the protein stability index was 2.49. For TCADRDNLTRRFSDLGFEVKCFAD, the protein stability index was 3.52. In the case of TCADRDNLTRRFSDLGFEVKCFCD, the protein stability index is reported as 1.8. Variant TCADRDNLTRRFSDLGFEVKCFED has a protein stability index of 4.66. TCADRDNLTRRFSDLGFEVKNFND showed a protein stability index of 3.82. TCADRDNLTRRFSDLGFEVKSFND gave a protein stability index of 4.01. With TCADRDNLTRRFSDLGFEVKDFND the protein stability index was 4.17. With TCADRDNLTRRFSDLGFEVKKFND the protein stability index was 4.2. With TCADRDNLTRRFSDLGFEVKWFND the protein stability index was 2.63. Work on TCADRDNLTRRFSDLGFEVKTFND yielded a protein stability index of 3.98. With TCADRDNLTRRFSDLGFEVKQFND the protein stability index was 4.05. TCADRDNLTRRFSDLGFEVKRFND showed a protein stability index of 3.72. For TCADRDNLTRRFSDLGFEVKLFND, the protein stability index was 2.85. For TCADRDNLTRRFSDLGFEVKHFND, the protein stability index was 3.72. TCADRDNLTRRFSDLGFEVKPFND gave a protein stability index of 3.17. With TCADRDNLTRRFSDLGFEVKEFND the protein stability index was 4.3. TCADRDNLTRRFSDLGFEVKIFND showed a protein stability index of 2.52. TCADRDNLTRRFSDLGFEVKVFND showed a protein stability index of 2.67. Variant TCADRDNLTRRFSDLGFEVKAFND has a protein stability index of 3.53. For TCADRDNLTRRFSDLGFEVKYFND, the protein stability index was 2.97. Work on TCADRDNLTRRFSDLGFEVKGFND yielded a protein stability index of 3.5. TCADRDNLTRRFSDLGFEVKMFND gave a protein stability index of 3.2. Variant TCADRDNLTRRFSDLGFEVKFFND has a protein stability index of 2.16. Work on TCADRDNLTRRFSDLGFEVKCFNA yielded a protein stability index of 2.21. In the case of TCADRDNLTRRFSDLGFEVKCFNV, the protein stability index is reported as 1.23. TCADRDNLTRRFSDLGFEVKCFNI gave a protein stability index of 1.87. Work on TCADRDNLTRRFSDLGFEVKCFNK yielded a protein stability index of 3.02. Work on TCADRDNLTRRFSDLGFEVKCFNR yielded a protein stability index of 2.67. TCADRDNLTRRFSDLGFEVKCFNP gave a protein stability index of 3.24. TCADRDNLTRRFSDLGFEVKCFNE showed a protein stability index of 2.94. With TCADRDNLTRRFSDLGFEVKCFNH the protein stability index was 2.95. Work on TCADRDNLTRRFSDLGFEVKCFNT yielded a protein stability index of 2.54. TCADRDNLTRRFSDLGFEVKCFNM showed a protein stability index of 2.6. Variant TCADRDNLTRRFSDLGFEVKCFNL has a protein stability index of 2.17. Variant TCADRDNLTRRFSDLGFEVKCFNC has a protein stability index of 2.41. Work on TCADRDNLTRRFSDLGFEVKCFNS yielded a protein stability index of 2.57. For TCADRDNLTRRFSDLGFEVKCFNW, the protein stability index was 2.14. With TCADRDNLTRRFSDLGFEVKCFNQ the protein stability index was 3.24. With TCADRDNLTRRFSDLGFEVKCFNY the protein stability index was 2.04. For TCADRDNLTRRFSDLGFEVKCFNN, the protein stability index was 2.97. With TCADRDNLTRRFSDLGFEVKCFNF the protein stability index was 2.11. For TCADRDNLTRRFSDLGFEVKCFNG, the protein stability index was 2.66.

Variants of: B2
Experiment: as above
Settings: c terminus: a fixed tail appended
Work on FSDPSQSYPETKDFWLNMAALTEA yielded a protein stability index of 2.23.
